# Measurements from paper PMC12491506, “Identification of a RAB32-LRMDA-Commander membrane trafficking complex reveals the molecular mechanism of human oculocutaneous albinism type 7” (Nature Communications, 2025).
# T1: recombinant LRMDA (tag-less) (human, UniProt A0A087WWI0 1-226)
# T1 construct: LRMDA, human, full-length, longer isoform (this isoform was used in all experiments); gene synthesised with codon optimisation for S. frugiperda; also called purified LRMDA; HaloTag-TEV-LRMDA after TEV cleavage; source: Sf21 insect cells (baculovirus), purified (HaloLink resin, TEV cleavage); not shown: HaloTag, N-terminal, cleaved
# T1 sequence (looked up): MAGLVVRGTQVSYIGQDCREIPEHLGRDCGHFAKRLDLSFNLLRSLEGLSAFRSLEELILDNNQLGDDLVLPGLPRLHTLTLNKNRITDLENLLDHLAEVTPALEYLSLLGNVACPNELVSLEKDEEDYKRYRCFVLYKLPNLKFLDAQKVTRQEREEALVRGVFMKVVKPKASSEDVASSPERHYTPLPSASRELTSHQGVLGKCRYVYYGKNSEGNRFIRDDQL
# Target: T1, recombinant LRMDA (tag-less)
# Assay: pull-down; 0.5 µM Retriever (His-tagged VPS29) on TALON resin with 1 µM LRMDA and 1 µM RAB32 together; 50 mM HEPES pH 7.2, 150 mM NaCl, 2 mM β-mercaptoethanol, 0.1% Triton X-100; 45 min at 4 °C; washes with 10 mM imidazole
# Settings: both partners purified
binder,measurement,value
"recombinant RAB32 (tag-less) (natural protein, human, UniProt Q13637 1-225, looked up, RAB32, human, full-length; also called purified RAB32; GST-TEV-RAB32 after TEV cleavage; source: Sf21 insect cells (baculovirus), purified (Glutathione Sepharose 4b, TEV cleavage); not shown: GST, N-terminal, cleaved) MAGGGAGDPGLGAAAAPAPETREHLFKVLVIGELGVGKTSIIKRYVHQLFSQHYRATIGVDFALKVLNWDSRTLVRLQLWDIAGQERFGNMTRVYYKEAVGAFVVFDISRSSTFEAVLKWKSDLDSKVHLPNGSPIPAVLLANKCDQNKDSSQSPSQVDQFCKEHGFAGWFETSAKDNINIEEAARFLVEKILVNHQSFPNEENDVDKIKLDQETLRAENKSQCC",binding result,binds
